Test results published in publication PMC4159622.

Key:
[1] = target: FBXO11 (UniProt Q86XK2); assay: co-IP of alanine scanning mutants; details: reference: wild type; sites S11
[2] = target: FBXO11 (UniProt Q86XK2); assay: co-IP with anti-HA; details: reference: wild type; sites S11

Row | binding against the reference [1] | binding against the reference [2] | Substance
1 | lost | – | SNAIL (from UniProt O95863) S11A
2 | – | lost | SNAIL (from UniProt O95863) S11V
